In FireProtDB (doi:10.1016/j.jmb.2003.10.041):

B1: Bacteriorhodopsin, P02945 (parent)
chain: MLELLPTAVEGVSQAQITGRPEWIWLALGTALMGLGTLYFLVKGMGVSDPDAKKFYAITTLVPAIAFTMYLSMLLGYGLTMVPFGGEQNPIYWARYADWLFTTPLLLLDLALLVDADQGTILALVGADGIMIGTGLVGALTKVYSYRFVWWAISTAAMLYILYVLFFGFTSKAESMRPEVASTFKVLRNVTVVLWSAYPVVWLIGSEGAGIVPLNIETLLFMVLDVSAKVGFGLILLRSRAIFGEAEAPEPSAGDGAAATSD

Variants of: B1
Details: Halobacterium salinarum (strain ATCC 700922 / JCM 11081 / NRC-1); pH 6; 25 °C; SDS; Absorbance; sodium phosphate 10 mM; reversible: yes (90%); structure 2BRD; whole UniProt chain shown

| Variant | ddG of mutation (higher = less stable) [kcal/mol] |
| --- | --- |
| MLELLPTAVEGVSQAQITGRPEWIWLALGTALMGLGTLYFLVKGMGVSDPDAKKFYAITTLVPAIAFTAYLSMLLGYGLTMVPFGGEQNPIYWARYADWLFTTPLLLLDLALLVDADQGTILALVGADGIMIGTGLVGALTKVYSYRFVWWAISTAAMLYILYVLFFGFTSKAESMRPEVASTFKVLRNVTVVLWSAYPVVWLIGSEGAGIVPLNIETLLFMVLDVSAKVGFGLILLRSRAIFGEAEAPEPSAGDGAAATSD [M69A] | -1.4 |
| MLELLPTAVEGVSQAQITGRPEWIWLALGTALMGLGTLYFLVKGMGVSDPDAKKFYAITTLVPAIAFAMYLSMLLGYGLTMVPFGGEQNPIYWARYADWLFTTPLLLLDLALLVDADQGTILALVGADGIMIGTGLVGALTKVYSYRFVWWAISTAAMLYILYVLFFGFTSKAESMRPEVASTFKVLRNVTVVLWSAYPVVWLIGSEGAGIVPLNIETLLFMVLDVSAKVGFGLILLRSRAIFGEAEAPEPSAGDGAAATSD [T68A] | 0.1 |
| MLELLPTAVEGVSQAQITGRPEWIWLALGTALMGLGTLYFLVKGMGVSDPDAKKFYAITTLVPAIAATMYLSMLLGYGLTMVPFGGEQNPIYWARYADWLFTTPLLLLDLALLVDADQGTILALVGADGIMIGTGLVGALTKVYSYRFVWWAISTAAMLYILYVLFFGFTSKAESMRPEVASTFKVLRNVTVVLWSAYPVVWLIGSEGAGIVPLNIETLLFMVLDVSAKVGFGLILLRSRAIFGEAEAPEPSAGDGAAATSD [F67A] | 1 |
| MLELLPTAVEGVSQAQITGRPEWIWLALGTALMGLGTLYFLVKGMGVSDPDAKKFYAITTLVPAAAFTMYLSMLLGYGLTMVPFGGEQNPIYWARYADWLFTTPLLLLDLALLVDADQGTILALVGADGIMIGTGLVGALTKVYSYRFVWWAISTAAMLYILYVLFFGFTSKAESMRPEVASTFKVLRNVTVVLWSAYPVVWLIGSEGAGIVPLNIETLLFMVLDVSAKVGFGLILLRSRAIFGEAEAPEPSAGDGAAATSD [I65A] | 1.4 |
| MLELLPTAVEGVSQAQITGRPEWIWLALGTALMGLGTLYFLVKGMGVSDPDAKKFYAITTLVPAIAFTMYLSMLAGYGLTMVPFGGEQNPIYWARYADWLFTTPLLLLDLALLVDADQGTILALVGADGIMIGTGLVGALTKVYSYRFVWWAISTAAMLYILYVLFFGFTSKAESMRPEVASTFKVLRNVTVVLWSAYPVVWLIGSEGAGIVPLNIETLLFMVLDVSAKVGFGLILLRSRAIFGEAEAPEPSAGDGAAATSD [L75A] | -0.5 |
| MLELLPTAVEGVSQAQITGRPEWIWLALGTALMGLGTLYFLVKGMGVSDPDAKKFYAITTLVPAIAFTMYLAMLLGYGLTMVPFGGEQNPIYWARYADWLFTTPLLLLDLALLVDADQGTILALVGADGIMIGTGLVGALTKVYSYRFVWWAISTAAMLYILYVLFFGFTSKAESMRPEVASTFKVLRNVTVVLWSAYPVVWLIGSEGAGIVPLNIETLLFMVLDVSAKVGFGLILLRSRAIFGEAEAPEPSAGDGAAATSD [S72A] | -0.1 |
| MLELLPTAVEGVSQAQITGRPEWIWLALGTALMGLGTLYFLVKGMGVSDPDAKKFYAITTLVPAIAFTMYLSMALGYGLTMVPFGGEQNPIYWARYADWLFTTPLLLLDLALLVDADQGTILALVGADGIMIGTGLVGALTKVYSYRFVWWAISTAAMLYILYVLFFGFTSKAESMRPEVASTFKVLRNVTVVLWSAYPVVWLIGSEGAGIVPLNIETLLFMVLDVSAKVGFGLILLRSRAIFGEAEAPEPSAGDGAAATSD [L74A] | -0.7 |
| MLELLPTAVEGVSQAQITGRPEWIWLALGTALMGLGTLYFLVKGMGVSDPDAKKFYAITTLVPAIAFTMYLSALLGYGLTMVPFGGEQNPIYWARYADWLFTTPLLLLDLALLVDADQGTILALVGADGIMIGTGLVGALTKVYSYRFVWWAISTAAMLYILYVLFFGFTSKAESMRPEVASTFKVLRNVTVVLWSAYPVVWLIGSEGAGIVPLNIETLLFMVLDVSAKVGFGLILLRSRAIFGEAEAPEPSAGDGAAATSD [M73A] | 0.8 |
| MLELLPTAVEGVSQAQITGRPEWIWLALGTALMGLGTLYFLVKGMGVSDPDAKKFYAITTLVAAIAFTMYLSMLLGYGLTMVPFGGEQNPIYWARYADWLFTTPLLLLDLALLVDADQGTILALVGADGIMIGTGLVGALTKVYSYRFVWWAISTAAMLYILYVLFFGFTSKAESMRPEVASTFKVLRNVTVVLWSAYPVVWLIGSEGAGIVPLNIETLLFMVLDVSAKVGFGLILLRSRAIFGEAEAPEPSAGDGAAATSD [P63A] | -0.1 |
| MLELLPTAVEGVSQAQITGRPEWIWLALGTALMGLGTLYFLVKGMGVSDPDAKKFYAITTLVPAIAFTMYASMLLGYGLTMVPFGGEQNPIYWARYADWLFTTPLLLLDLALLVDADQGTILALVGADGIMIGTGLVGALTKVYSYRFVWWAISTAAMLYILYVLFFGFTSKAESMRPEVASTFKVLRNVTVVLWSAYPVVWLIGSEGAGIVPLNIETLLFMVLDVSAKVGFGLILLRSRAIFGEAEAPEPSAGDGAAATSD [L71A] | -0.3 |
